Legend:
[1] = biological target: T1, β-phosphoglucomutase (βPGM) (Lactococcus lactis, UniProt P71447); assay: real-time NMR (A:F16BP complex observed); phosphorylating agent in coupled assay; assay type: binding
T1 construct: gene pgmB

[2] = biological target: T2, β-phosphoglucomutase (βPGM) (Lactococcus lactis, UniProt P71447, P146A); assay: NMR: phosphorylation of the purified enzyme (B^P formed) and turnover of F16BP; assay type: biochemical
T2 construct: gene pgmB

[3] = biological target: T1, β-phosphoglucomutase (βPGM); assay: X-ray crystal structure at […] Å; NMR titration (1H15N-TROSY); assay type: binding
[4] = tested on: O=P(O)(O)OC[C@H]1O[C@@H](OP(=O)(O)O)[C@H](O)[C@@H](O)[C@@H]1O; assay: purified protein; settings: Mg2+ active site
[5] = tested on: O=P(O)(O)O[C@@H]1O[C@H](CO)[C@@H](O)[C@H](O)[C@H]1O; assay: purified protein; settings: Mg2+ active site

Compound	real-time NMR (A:F16BP complex observed); phosphorylating agent in coupled assay [1]	NMR: phosphorylation of the purified enzyme (B^P formed) and turnover of F16BP [2]	X-ray crystal structure at 2.1 Å; NMR titration (1H15N-TROSY) [3]	Km [4] [µM]	Km [5] [µM]
O=P(O)(O)OC[C@H]1OC(O)(COP(=O)(O)O)[C@@H](O)[C@@H]1O (mixture of isomers) [F16BP, fructose 1,6-bisphosphate]	A minor population of the A:F16BP complex is also present	On addition of F16BP to βPGMP146A, the two dominant species observed are conformer B and B^P			
O=C(O)CC(O)(CC(=O)O)C(=O)O [citrate]			Citrate is coordinated in the active site by residues T16, H20, V47–R49 and A115–K117 and mimics substrate binding		
β-phosphoglucomutase (βPGM) (Lactococcus lactis subsp. lactis Il1403; P146A)				175 ± 3	157 ± 3
β-phosphoglucomutase (βPGM) (Lactococcus lactis subsp. lactis Il1403)				8.5 ± 0.3	91 ± 4
